# Data reported in US20040014026A1 (YISSUM RESEARCH DEVELOPMENT COMPANY OF THE HEBREW …, published 2004).
# B1: Flag-tagged E3RS/βTrCP (Flag-E3RS) (other, UniProt Q9Y297 1-605, looked up, not shown: small tags and cut ends)
# chain: MDPAEAVLQEKALKFMCSMPRSLWLGCSSLADSMPSLRCLYNPGTGALTAFQNSSEREDCNNGEPPRKIIPEKNSLRQTYNSCARLCLNQETVCLASTAMKTENCVAKTKLANGTSSMIVPKQRKLSASYEKEKELCVKYFEQWSESDQVEFVEHLISQMCHYQHGHINSYLKPMLQRDFITALPARGLDHIAENILSYLDAKSLCAAELVCKEWYRVTSDGMLWKKLIERMVRTDSLWRGLAERRGWGQYLFKNKPPDGNAPPNSFYRALYPKIIQDIETIESNWRCGRHSLQRIHCRSETSKGVYCLQYDDQKIVSGLRDNTIKIWDKNTLECKRILTGHTGSVLCLQYDERVIITGSSDSTVRVWDVNTGEMLNTLIHHCEAVLHLRFNNGMMVTCSKDRSIAVWDMASPTDITLRRVLVGHRAAVNVVDFDDKYIVSASGDRTIKVWNTSTCEFVRTLNGHKRGIACLQYRDRLVVSGSSDNTIRLWDIECGACLRVLEGHEELVRCIRFDNKRIVSGAYDGKIKVWDLVAALDPRAPAGTLCLRTLVEHSGRVFRLQFDEFQIVSSSHDDTILIWDFLNDPAAQAEPPRSPSRTYTYISR
# notes: F-box protein, receptor subunit of the IκB-E3; Immunopurified material may carry endogenous Skp1/Cul1; also called β-TrCP/E3RS; WT E3RS
# B2: Flag-HOS/β-TrCP2 (other, human, UniProt Q9UKB1 1-542, looked up, not shown: small tags and cut ends)
# chain: MEPDSVIEDKTIELMCSVPRSLWLGCANLVESMCALSCLQSMPSVRCLQISNGTSSVIVSRKRPSEGNYQKEKDLCIKYFDQWSESDQVEFVEHLISRMCHYQHGHINSYLKPMLQRDFITALPEQGLDHIAENILSYLDARSLCAAELVCKEWQRVISEGMLWKKLIERMVRTDPLWKGLSERRGWDQYLFKNRPTDGPPNSFYRSLYPKIIQDIETIESNWRCGRHNLQRIQCRSENSKGVYCLQYDDEKIISGLRDNSIKIWDKTSLECLKVLTGHTGSVLCLQYDERVIVTGSSDSTVRVWDVNTGEVLNTLIHHNEAVLHLRFSNGLMVTCSKDRSIAVWDMASATDITLRRVLVGHRAAVNVVDFDDKYIVSASGDRTIKVWSTSTCEFVRTLNGHKRGIACLQYRDRLVVSGSSDNTIRLWDIECGACLRVLEGHEELVRCIRFDNKRIVSGAYDGKIKVWDLQAALDPRAPASTLCLRTLVEHSGRVFRLQFDEFQIISSSHDDTILIWDFLNVPPSAQNETRSPSRTYTYISR
# notes: also called β-TrCP2/HOS
# B3: IKK-phosphorylated IκBα (pIκBα) (other, UniProt P25963 1-317, looked up)
# chain: MFQAAERPQEWAMEGPRDGLKKERLLDDRHDSGLDSMKDEEYEQMVKELQEIRLEPQEVPRGSEPWKQQLTEDGDSFLHLAIIHEEKALTMEVIRQVKGDLAFLNFQNNLQQTPLHLAVITNQPEIAEALLGAGCDPELRDFRGNTPLHLACEQGCLASVGVLTQSCTTPHLHSILKATNYNGHTCLHLASIHGYLGIVELLVSLGADVNAQEPCNGRTALHLAVDLQNPDLVSLLLKCGADVNRVTYQGYSPYQLTWGRPSTRIQQQLGQLTLENLQMLPESEDEESYDTESEFTEFTEDELPYDDCVFGGQRLTL
# modifications: phosphorylated by IKK2 (sites not given); 35S-labelled in the in vitro assays
# notes: in the other assays it was phosphorylated in vitro by IKK2
# B4: non-phosphorylated IκBα (other, UniProt P25963 1-317, looked up)
# chain: B3 chain
# B5: Flag-F-Box (F-Box fragment of E3RS) (other, UniProt Q9Y297 1-228, looked up, not shown: small tags and cut ends)
# chain: MDPAEAVLQEKALKFMCSMPRSLWLGCSSLADSMPSLRCLYNPGTGALTAFQNSSEREDCNNGEPPRKIIPEKNSLRQTYNSCARLCLNQETVCLASTAMKTENCVAKTKLANGTSSMIVPKQRKLSASYEKEKELCVKYFEQWSESDQVEFVEHLISQMCHYQHGHINSYLKPMLQRDFITALPARGLDHIAENILSYLDAKSLCAAELVCKEWYRVTSDGMLWKKL
# notes: domain: F-Box fragment
# B6: WDK2 (Flag-WD with Lys 326 mutated to Ala) (other, UniProt Q9Y297 229-605, looked up, not shown: small tags and cut ends)
# chain: IERMVRTDSLWRGLAERRGWGQYLFKNKPPDGNAPPNSFYRALYPKIIQDIETIESNWRCGRHSLQRIHCRSETSKGVYCLQYDDQKIVSGLRDNTIAIWDKNTLECKRILTGHTGSVLCLQYDERVIITGSSDSTVRVWDVNTGEMLNTLIHHCEAVLHLRFNNGMMVTCSKDRSIAVWDMASPTDITLRRVLVGHRAAVNVVDFDDKYIVSASGDRTIKVWNTSTCEFVRTLNGHKRGIACLQYRDRLVVSGSSDNTIRLWDIECGACLRVLEGHEELVRCIRFDNKRIVSGAYDGKIKVWDLVAALDPRAPAGTLCLRTLVEHSGRVFRLQFDEFQIVSSSHDDTILIWDFLNDPAAQAEPPRSPSRTYTYISR
# notes: domain: WD fragment (F-Box deleted E3RS); also called Flag-WD mutant WDK2; mutant WD
# Assays:
# [1] = target: IKK-phosphorylated IκBα (pIκBα) (UniProt P25963); experiment: pIκBα binding after heat shock, data not shown
# [2] = target: T1, hnRNP-U (endogenous protein of 293/293T cells) (UniProt Q00839-2 2-806, limits assumed); experiment: anti-Flag immunopurification from 293T cells, SDS-PAGE Coomassie
# T1 construct: also called p120; 120 kD protein
# Procedure: (§1) The cells were lysed and the extracts immunoprecipitated, using agarose-conjugated anti-Flag (lanes 1-5) and anti-HA (lane 6) antibodies. Immunoprecipitated proteins were analyzed by SDS-PAGE and Coomassie Brilliant Blue staining.
# [3] = target: T1, hnRNP-U (endogenous protein of 293/293T …); experiment: anti-Flag immunoprecipitation from 293T cells, Western blot with monoclonal anti-hnRNP-U (also Coomassie, FIG. 2A lane 3)
# Procedure: Cells were harvested 24-48 h after transfection, and extracted by suspension in 50 mM Tris pH 7.6, 1 mM dithiothreitol (DTT), 0.1% Nonidet P-40 (NP-40), 1 mM phenyl methyl sulfonyl fluoride, 1% Aprotinin and vortexing for 20 sec. Cell extracts were collected following centrifugation at 20,000 g for 30 min at 4° C. Cell extract (500 μg protein) was adjusted to 150 mM NaCl prior to immunoprecipitation. Flag-tagged proteins were immunoprecipitated with 2 μl of the anti-Flag immunobeads. Immunoprecipitation was for 2 h at 4° C. and the immunobeads were washed 4× in 300 mM NaCl, 1 mM DTT, 0.1% NP-40 and 50 mM Tris, pH 7.6. Flag-tagged proteins were eluted from the Flag immunobeads with 1 mg/ml of Flag peptide in 50 mM Tris, pH 7.6 for 30 min at 25° C. hnRNP-U was immunoprecipitated using 0.2-0.5 μl of the 3G6 antibody and 2-5%1 of Protein G immunobeads.
# as §1
# HA-hnRNP-U = target: T2, HA-hnRNP-U (UniProt Q00839-2 1-806, limits assumed); experiment: anti-p65 immunoprecipitation from 293T cells with MEKK and IKK2, anti-HA Western blot
# T2 construct: not shown: HA tag
# [4] = target: T1, hnRNP-U (endogenous protein of 293/293T …); experiment: pIκBα incubated with anti-hnRNP-U immunobeads carrying the hnRNP-U/E3RS complex, Western blot
# Procedure: (§2) IκBα (FIG. 4D, lanes 1,3,4) and IKK phosphorylated IκBα (pIκBα; FIG. 4D, lanes 2,5-7) were incubated with the immunobeads, after which, both the immunobeads (slurry (S); FIG. 4D, lanes 1-3,5) and the post-slurry fractions (PS; FIG. 4D, lanes 4,6) were analyzed by Western blot directly, or after immunoprecipitation of the post-slurry fraction (same as in FIG. 4D, lane 6) with anti-Flag beads (FIG. 4D, lane 7).
# [5] = target: B6; experiment: pull-down of 35S-labelled pIκBα on anti-Flag immunobeads, phosphorimaging
# Source text: The beads were washed extensively and associated proteins analyzed by SDS-PAGE and phosphorimaging.
# [6] = target: T1, hnRNP-U (endogenous protein of 293/293T …); experiment: IκBα incubated with anti-hnRNP-U immunobeads carrying the hnRNP-U/E3RS complex, Western blot
# Procedure: as §2
# [7] = target: T1, hnRNP-U (endogenous protein of 293/293T …); experiment: anti-Flag immunoprecipitation from 293T cells, Coomassie and Western blot
# Procedure: as §1
# [8] = target: T1, hnRNP-U (endogenous protein of 293/293T …); experiment: anti-Flag immunopurification, Flag-peptide elution, Coomassie
# Procedure: To detect specifically dissociated proteins, immunobeads were incubated with Flag peptide (FIG. 3B, lanes 1,4,7), pp10 (FIG. 3B, lanes 2,5,8), p10S/E (FIG. 3B, lanes 3,6,9) and the post-slurry fractions were separated by SDS-PAGE.
molecule,measurement,setting,value
E3K2 (Flag-E3RS with the K2 residue Lys 326 mutated to Ala) (from UniProt Q9Y297 1-605),loss of pIκBα binding capacity after heat shock,[1],50 to 60%
B1,Coomassie staining ratio p120/E3RS,[2],1.5 ratio p120:E3RS
B2,binding result,[3],no binding
B3,binding result,HA-hnRNP-U,no binding
same,binding result,[4],no binding
same,binding result,[5],no binding
B4,binding result,[6],no binding
B5,binding result,[7],no binding
B6,binding result,[8],no binding
